Reference: the DeepSol protein solubility set

assay: soluble on expression in E. coli; label from the status in PepcDB or PDB records

Sequence | soluble on expression in E. coli
MGSDKIHHHHHHVTILSPKAVPAPAASDAYGFGDRLTADFPSQINVDVTEVCNLACVHCPHPQFKKSVHYAGRMLDPALNDKMVEEVRDHGQGRVGYIRYTAAGEPMAHPAIFPMLAKAVARSGTTVSLTTNGMLLDEGRRARLLETGIHLIDISIDAFLPETYARVRVGGDLERVRGGVLRLMEGAARRVDPPKIVVSFVEQPFNQGETADFERFWKENGAAYVVIRRLHSCAGAAQDLAATLRVEQGETRRPCLYPWERIVLNPSGQLSFCPADWAHGAAIAEYRDTTIREVWQGPFYRALREAHLTNSYANHGFCGQCPDWASTRWPKQGRSYADMVQDFKETE | not soluble
MSDEKSTTPTAQLDAPADGNMNDLTSLIQGVLQQTQDRFQHMSDQIIRRIDDMTTRIDDLEKNINDLLQSNQVEHPPSAQ | not soluble
MKKVFIPINTKIPVERQFPNRVPIWGNYEFIISTKEPEQEYDYVVVLDDIEYSLRLMCCKQNICLFTGEPPYVKLYPRKYLNQFGHVYTCQSSVLKRDNACLSYPALPWMLYYNFYNDKQKEELLIDYDFLKNRPTLQRKNKICLFTSNKKISKGHIERIKFALKLQEEMPDLIDIYGSGFTNVDYKYEVMVQYKYAIVIENCSYPYYWTEKLADTFLSGCYPIYFGDPHIGDFFSKEEMAVIDIRNFDESKQTIKKIIDNNVYEKQYENICHARDKILDKYNMFSLISSTLDSIPAKLDKEKLLLSPMRLSVFDRIRNRIYRLFYLEHHHHHH | not soluble
MSNVAENNDGVYDAPTGITAPPIDELLKHVSSKYALVIFAAKRARQINSYYQQADEGVFEFVGPLVTPEAQEKPLSIAMREIEAGLLDHEEG | not soluble
MKEDWPEPVKEYNTGQVLFDRLELTRTNEEENLAVWDMIAWYGGDYHRAVFKSEGENVQDDGEPTDLERAELLYGYLVSPFWSFQAGIGTRGTLSSDASMENYAVVSFMGLAPYWFEMDNSLMVNEEGDVQFVSETEYEWQLTQTSYLQPRIELTANLTDSDKYERQSGLSNLRVGLRYRHEISREFAPYIGVYWNGALGNTADEMKRMGKDTTETGVVLGARVWFLEHHHHHH | not soluble
MGSDKIHHHHHHMPTTMTTNIKNNDFKDVVFNRQSVRQFDPTVKIDREELQTIIDETISAPSACNLQSWHFVVADSADGKAKAKSVLMPFNYPQIDSCSAMIFVLGDTQSHLVYRDVWNKACEEGRITPEKRDQIFKTFLPMYENASPEFLQADAMIDSSMAAMQLLLIARAHGYDANPIAGYAADKVATTFGLDAKRYVPVMAIALGKAASEPITTTRYAGTQVTEFI | not soluble
MGSDKIHHHHHHMKAVVIVKRAGQERPDLEYQTVPDPKPEPNELLVSVRAAGINRIDLHRSTAHGAPAAGKPLVAGLEMSGEVVAVGENVHDFRTGDKVYGMTTGSYAELATIDHRYALPVPPAFSFDQATAVATVYPTAHNALVTNGQFAAGKTVLIQGVSSAVGIATLQIAKAMGAKCVVGTGRPNANIGKLAEAGLDRFLLNGTDNIPAEIMAMTDGRGVDTIVDMVGGPTIADNLESVALAGRIVSVGWVGGTKGEIDLDTLARKRVTLVGVSFRTRTVEEKTELFAQFRRDVYPLFVNGTLVPYIAATYHLSEAAAAQDAMAEDKHFGKILLHP | not soluble
MSKVIQKKNHWTSRVHECTVKRGPQGELGLTVLGGAEHGEFPYVGAVAAVEAAGLPGGGEGPRLGEGELLLEVQGVRVSGLPRYDVLGVIDSCKEAVTFKAVRQGGRLNKDLRHFLNQRFQKGSPDHELQQTIRDNLYRHAVPCTTRSPREGEVPGVDYNFLTVKEFLDLEQSGTLLEVGTYEGNYYGTPKPPSQPVSGKVITTDALHSLQSGSKQSTPKRTKSYNDMQNAGIVHAENEEEDDVPEMNSSFTADSGEQEEHTLQETALPPVNSSIIAAPITDPSQKFPQYLPLSAEDNLGPLPENWEMAYTENGEVYFIDHNTKTTSWLDPRCLNKQQKPLEECEDDEGVHTEELDSELELPAGWEKIEDPVYGIYYVDHINRKTQYENPVLEAKRKKQLEQQQQQQQQQQQQQQQQQQQQQTEEWTEDHSALVPPVIPNHPPSNPEPAREVPLQGKPFFTRNPSELKGKFIHTKLRKSSRGFGFTVVGGDEPDEFLQIKSLVLDGPAALDGKMETGDVIVSVNDTCVLGHTHAQVVKIFQSIPIGASVDLELCRGYPLPFDPDDPNTSLVTSVAILDKEPIIVNGQETYDSPASHSSKTGKVNGMKDARPSSPADVASNSSHGYPNDTVSLASSIATQPELITVHIVKGPMGFGFTIADSPGGGGQRVKQIVDSPRCRGLKEGDLIVEVNKKNVQALTHNQVVDMLVECPKGSEVTLLVQRGGLPVPKKSPKSQPLERKDSQNSSQHSVSSHRSLHTASPSHSTQVLPEFPPAEAQAPDQTDSSGQKKPDPFKIWAQSRSMYENRPMSPSPASGLSKGEREREINSTNFGECPIPDYQEQDIFLWRKETGFGFRILGGNEPGEPIYIGHIVPLGAADTDGRLRSGDELICVDGTPVIGKSHQLVVQLMQQAAKQGHVNLTVRRKVVFAVPKTENEVPSPASSHHSSNQPASLTEEKRTPQGSQNSLNTVSSGSGSTSGIGSGGGGGSGVVSTVVQPYDVEIRRGENEGFGFVIVSSVSRPEAGTTFGNACVAMPHKIGRIIEGSPADRCGKLKVGDRILAVNGCSITNKSHSDIVNLIKEAGNTVTLRIIPGDESSNATLLTNAEKIATITTTHTPSQQGTQETRNTTKPKQESQFEFKAPQATQEQDFYTVELERGAKGFGFSLRGGREYNMDLYVLRLAEDGPAERCGKMRIGDEILEINGETTKNMKHSRAIELIKNGGRRVRLFLKRGDGSVPEYAM | soluble
RHQVESSPLFRALALRCNQTMVTLRSANMFHAYGFLAKVFEILAKHKISVDLITTSEISVSLTLDQTDTSGGAPQLPQAAREELEELCKVEVEHDLCLVALIGNKMSERKGYAKQVFGTLEDLNLRMICYGASPHNLCFLVNESVAKQAIQKLHTELFEQ | not soluble
MKLPVVESFFSLQGEGKRIGKPSLFLRLGGCNLSCKGFNCKTLLNDEILTGCDSLYAVHPKFKTSWDYYNEPKPLIERLEDLAPNYKDFDFILTGGEPSLYFNNPILISVLEHFYRQKIPLCVESNGSIFFEFSPILKELHFTLSVKLSFSLEEESKRIHLKALQNILNNAKSAHFKFVLESQNAAQSIIEIQSLLKQLSLKNNEIFLMPLGTNNNELDKNLKTLAPLAIKHGFRLSDRLHIRLWDNQKGF | not soluble
MAHHHHHHMMRWAVDVTGIDVAEDLEREQRKCVYKVPRAANGESWHAVDDWRANASEYNDELGKVWALTRDEVQDAIAERALTANALFCNVGRTLAGALQRQGSITIAAGCASQLRGSCGRGLQWDGLLSNTQSIVSNDFACDAVPSTREVRVFSTFLNAEGKRMTVTVNMTQPTYRGVDVVAAFLQQAVATNESLSQRYSTNPRLYKLFIADEDTGEEEMAAQLDLGAQNFSCYAVNPMPAAKLFLFPQRTALLNTTTRDVNLTVQVRPLDPQAKAVQRQCVVPADMLAESLEATICSRLPASGIIQGSLRIMHGPMELNINEYYNFGAGCGQPNCPIAERTVLSLFRFGVREVVVNGRAVEEAPTEVLRDLTEDIIIDMGVDEAVSFQQFEVICINKYGARQQRLLCVDGEHLYTMRPNASEALPKTTERTIKDIEEVRIFADKPKYMEIAYTKSSHFEEDHFECTTTYNCALLNEKIRIVRRELRKREAEEQAASVKNETAMQRFMTGIRSRWFGGALQS | not soluble
MAHHHHHHMTSQPHVTMSKNTGSVTEQHKRMSHTTGDNNEEEKHILAGRYKTKLCKNYVARGECPYDVRCMFAHGEDELRTSDDNIRDGLVTEEAIKDFQRQQNQAKRRAAFAAAREHNNHDHSHSHNHSHSHNHTVRPVPHGNVYEMEENVESNEVYRNRNRHHNLRLHPPQEPVSIPQPQQQQQQEQQFQLQSVVAQYYTHNPYVFDLIPAAARLFPVYQEVVEEGCWYEEEPVPAQEDYYFPSSDMMMPLVPSLVTQQYLPYPHQQCSKQLETVASASTYSCEEAMYGHSESSASSAYRSVARCTAAELPSNSDIPAMVMEP | not soluble
MSVTEHKKQAPKEVRCKIVTISDTRTEETDKSGQLLHELLKEAGHKVTSYEIVKDDKESIQQAVLAGYHKEDVDVVLTNGGTGITKRDVTIEAVSALLDKEIVGFGELFRMISYLEDIGSSAMLSRAIGGTIGRKVVFSMPGSSGAVRLAMNKLILPELGHITFELHRQ | soluble
MKKPPLNICILRLSAIGDVCHTLAVIQAIQRQYPDIKISWIIGKTEAHLMQGIHNVELIPYDKKSGWQGIITLWKQLRNKRFDFLLNMQTALRASMLSLGIKATHKIGFNKDRAREMQSLFVDSQVEMTASPHVLDGQMMFAKAIGVTDLTPRWHLPVSSADLAYSNQFLNPHTQNVVIAPCSSKTEKDWDIASNAEIAKWLTDQNINVIIVGSPTDYECATANQIKQLAPKVINTTGKTTLKQLAALIKQVDLVIAPDTGVAHIATTQHTRVIGLYAIHNPRRTAPYSDQANVISVYDQAILDYYGTSWDKLAWATKAKSKKGEKLMQRITVEEVKQKIVETLNLKL | not soluble
MGSDKIHHHHHHLKLTKNIVSIVTDVILNESEAIKNLVNHINDDFQHIIDAILSCKGRVVITGIGKSAIIGNKIVATLNSTGTPALFMHAADAIHGDLGMIQGGDVVICISKSGNTPEIKVLVPLIKNRGTILIGMVGNVDSYLAVQSDYVLNVTVEREACPNNLAPTTSTTATLVMGDALAVALLECRNFSSEDFAQLHPGGALGKQLYLRVNDVYTANEKPMVAPDATVKDVILEISSKRLGAAAVVDSAGILQGIITDGDLRRMLNAHDSFKQLCAADIMTKAPKTIDADEFAASAMLLMQSKNITQLIVMKNENFAGFIHIHDLLKEGIV | not soluble
MGIRPVNRKRLSMDKVFIEQLEVITTIGVYDWEQQIKQKLVLDLEMAHDNRAAGKSDDVADALDYAQVSQAVLEHIEQGRFLLVERVAEEVAELIMTRFAVPWLRIRLTKPGAVPQAKGVGVIIERARG | not soluble
MGSDKIHHHHHHMSVSSTIEWTEATWNPTTGCHKISPGCKNCYAERFAERWRGVAGHPYEQGFDVKTWHERLKMPLSWKKPRLIFVNSMSDLFLDDISEEFIKDVFNVMEEASWHQFQVLTKRPQRMLKIANSIKKWPSNIWAGVSIESQAWVWRSEILKEIPAKIRFLSCEPLLGSLTLSLDELHWIIVGGESGVGARPMNIEWVRDIREQCIQANVPFFFKQWGGIQKKKYGREIDGRTWDGFPETIVDKNTKQVSPVK | not soluble
MGSDKIHHHHHHMHTMHIPSGDVLIPKPKLITEETDPLHIIKTRQKTHGRPVTIAGPMVRYSKLPFRQLCREYNVDIVYSPMILAREYVRNEHARISDLSTNNEDTPLIVQVGVNNVADLLKFVEMVAPYCDGIGINCGCPIKEQIREGIGCALIYNSDLLCSMVHAVKDKYGDKLRIETKIRIHEALDETVELCRKLCDAGVDWITIHGRTRRTRSSQPANLDAIKYIIENISDKNVPVIANGDCFKLSDLERITKYTGAHGVMAVRGLLSNPALFAGYTTCPWGCIEKFCYWALEFGGLPFQLAQHHLYCMLENMELKKSLLKKMMNLKNYISLIDWFNKTFEFKRYGEDGFGMGVEIPYKANSCVQRSASVVERQE | not soluble
MTRLPKLAVFDLDYTLWPFWVDTHVDPPFHKSSDGTVRDRRGQNIQLYPEVPEVLGRLQSLGVPVAAASRTSEIQGANQLLELFDLGKYFIQREIYPGSKVTHFERLHHKTGVPFSQMVFFDDENRNIIDVGRLGVTCIHIRDGMSLQTLTQGLETFAKAQAGL | soluble
